How the values were obtained:
[1] = target: T1, human LgR5 ECD (amino acids 22-557 fused to His-Fc expressed in a baculovirus system, or amino acids 22-558 … (human, UniProt O75473 22-557)); test: SPR (BIAcore-3000), antibody captured by anti-human Fc, LgR5 ECD-Fc injected
T1 construct: not shown: C-terminal His-tagged Fc
T1 sequence: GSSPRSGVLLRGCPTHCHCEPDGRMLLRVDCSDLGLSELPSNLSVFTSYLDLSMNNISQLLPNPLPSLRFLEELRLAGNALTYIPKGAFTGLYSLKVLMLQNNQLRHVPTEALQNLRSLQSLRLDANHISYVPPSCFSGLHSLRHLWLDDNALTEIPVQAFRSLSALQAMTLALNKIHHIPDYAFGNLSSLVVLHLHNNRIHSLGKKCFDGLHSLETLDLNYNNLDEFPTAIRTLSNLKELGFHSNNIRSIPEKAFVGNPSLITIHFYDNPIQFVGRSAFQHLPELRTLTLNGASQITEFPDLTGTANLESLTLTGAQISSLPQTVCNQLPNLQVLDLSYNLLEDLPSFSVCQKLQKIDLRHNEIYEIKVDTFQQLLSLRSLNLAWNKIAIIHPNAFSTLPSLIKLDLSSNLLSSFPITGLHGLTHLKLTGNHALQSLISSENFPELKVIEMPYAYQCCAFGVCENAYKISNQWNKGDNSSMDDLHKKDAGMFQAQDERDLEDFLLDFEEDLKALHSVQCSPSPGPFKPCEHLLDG

[2] = target: T2, gD epitope-tagged LgR5 324-907 (amino acids 324-907 of SEQ ID NO: 67) on transiently transfected 293 cells (human, UniProt O75473 324-907); test: FACS on transiently transfected 293 cells
T2 sequence: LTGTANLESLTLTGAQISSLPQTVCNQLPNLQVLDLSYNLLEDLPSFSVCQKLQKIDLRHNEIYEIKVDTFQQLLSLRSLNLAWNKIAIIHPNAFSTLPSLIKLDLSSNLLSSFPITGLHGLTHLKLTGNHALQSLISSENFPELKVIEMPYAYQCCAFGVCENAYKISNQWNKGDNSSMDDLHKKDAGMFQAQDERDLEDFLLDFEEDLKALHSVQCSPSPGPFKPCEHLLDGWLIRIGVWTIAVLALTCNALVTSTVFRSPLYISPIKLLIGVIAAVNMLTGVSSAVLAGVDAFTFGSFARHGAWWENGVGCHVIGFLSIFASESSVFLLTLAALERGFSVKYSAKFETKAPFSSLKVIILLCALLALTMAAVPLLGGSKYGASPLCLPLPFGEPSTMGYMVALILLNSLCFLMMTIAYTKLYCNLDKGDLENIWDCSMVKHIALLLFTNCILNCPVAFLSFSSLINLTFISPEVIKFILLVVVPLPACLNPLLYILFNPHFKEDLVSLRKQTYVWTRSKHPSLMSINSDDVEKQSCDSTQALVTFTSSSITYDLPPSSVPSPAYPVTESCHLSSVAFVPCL

[3] = target: T3, gD epitope-tagged LgR5 424-907 (amino acids 424-907 of SEQ ID NO: 67) on transiently transfected 293 cells (human, UniProt O75473 424-907); test: FACS on transiently transfected 293 cells
T3 sequence: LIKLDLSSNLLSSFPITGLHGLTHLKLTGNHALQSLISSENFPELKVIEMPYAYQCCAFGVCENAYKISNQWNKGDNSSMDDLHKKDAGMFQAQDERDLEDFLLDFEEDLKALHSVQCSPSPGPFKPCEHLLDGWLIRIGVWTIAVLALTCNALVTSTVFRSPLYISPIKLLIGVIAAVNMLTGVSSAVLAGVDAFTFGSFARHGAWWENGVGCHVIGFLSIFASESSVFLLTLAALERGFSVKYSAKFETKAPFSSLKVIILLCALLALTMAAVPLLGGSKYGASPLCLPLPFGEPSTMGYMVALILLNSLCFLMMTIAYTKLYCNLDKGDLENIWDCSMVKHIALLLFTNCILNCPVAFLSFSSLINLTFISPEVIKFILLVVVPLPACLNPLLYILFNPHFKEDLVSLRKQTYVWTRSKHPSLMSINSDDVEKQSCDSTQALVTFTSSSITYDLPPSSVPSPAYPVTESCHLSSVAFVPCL

[4] = target: T4, gD epitope-tagged LgR5 22-123 (amino acids 22-123 of SEQ ID NO: 67) with a C-terminal GPI anchor on … (human, UniProt O75473 22-123, C-terminal GPI anchor); test: FACS on transiently transfected 293 cells
T4 sequence: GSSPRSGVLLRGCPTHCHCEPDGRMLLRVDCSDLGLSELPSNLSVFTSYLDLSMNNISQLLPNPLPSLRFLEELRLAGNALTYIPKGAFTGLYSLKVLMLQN

B1: human antibody YW353 (antibody, human IgG1, kappa, V domains shown)
VH: EVQLVESGGGLVQPGGSLRLSCAASGFTFTSYSISWVRQAPGKGLEWVAEIYPPGGYTDYADSVKGRFTISADTSKNTAYLQMNSLRAEDTAVYYCAKARLFFDYWGQGTLVTVSS
VL: DIQMTQSPSSLSASVGDRVTITCRASQDVSTAVAWYQQKPGKAPKLLIYSASFLYSGVPSRFSGSGSGTDFTLTISSLQPEDFATYYCQQSYTTPPTFGQGTKVEIKR
notes: also called huYW353
Kd [1]: 1.6 nM | binding result [2]: no binding (tested: 10 µg/ml) | binding result [3]: no binding (tested: 10 µg/ml)

B2: chimeric monoclonal antibody 8E11 (antibody, human IgG1, V domains shown)
VH: QVQLQQSGTELMKPGASVKISCKATGYTFSAYWIEWIKQRPGHGLEWIGEILPGSDSTDYNEKFKVKATFSSDTSSNTVYIQLNSLTYEDSAVYYCARGGHYGSLDYWGQGTTLKVSS
VL: NIVLTQSPASLAVSLGQRATISCRASESVDNYGNSFMHWYQQKPGQPPKLLIYLASNLESGVPARFSGSGSRTDFTLTIDPVEADDAATYYCQQNYEDPFTFGSGTKVEIKR
notes: also called ch8E11; chimeric 8E11
Kd [1]: 2.4 nM | binding result [2]: no binding (tested: 10 µg/ml) | binding result [3]: no binding (tested: 10 µg/ml) | binding result [4]: no binding (tested: 10 µg/ml)

B3: humanized monoclonal antibody 8E11.v2 (antibody, human IgG1, kappa, V domains shown)
VH: EVQLVQSGAEVKKPGASVKVSCKASGYTFSAYWIEWVRQAPGQGLEWIGEILPGSDSTDYNEKFKVRATFTSDTSTSTVYLELSSLRSEDTAVYYCARGGHYGSLDYWGQGTLVTVSS
VL: DIVMTQSPDSLAVSLGERATINCRASESVDNYGNSFMHWYQQKPGQPPKLLIYLASNLESGVPDRFSGSGSGTDFTLTISSLQAEDVAVYYCQQNYEDPFTFGQGTKVEIKR
notes: It was assessed as an IgG; also called hu8E11.v2; hu8E11v2
binding result [2]: no binding (tested: 10 µg/ml) | binding result [3]: no binding (tested: 10 µg/ml) | binding result [4]: no binding (tested: 10 µg/ml)

Reference: patent publication US20130336885A1 (Genentech, published 2013)
